One may read the Kd as the equilibrium constant for the complex coming apart.

Kd data for 1 substance are collected here from article PMC6601556.

Assay in all cases: SPR
In general terms: Surface plasmon resonance follows binding to a sensor surface in real time, without labels.

Experiment [1] deals with 337_1_C08 variant VH H5E2 / VL 2.
In experiment [2] the target is 337_1_C08 variant VH K5E3 / VL 61.
In experiment [3] the target is 337_1_C08 variant VH K5T8 / VL 9.
The target in experiment [4] is 337_1_C08 variant VH K5T8 / VL 6.
The target in experiment [5] is 337_1_C08 variant VH H5E2 / VL 23.

As to “Monomeric human PD-1 rCD4 antigen (from UniProt Q15116 25-288) (receptor)”, the Kd in experiment [1] was found to be 30 nM; in experiment [2], 4.8 nM; in experiment [3] it was 2.9 nM; in experiment [4], 9 nM; in experiment [5], 54 nM.
